The assay addresses Rubisco activase (Arabidopsis thaliana) (UniProt P10896). Nature of the assay: GFP-bead immunoprecipitation of PRL-1-eGFP from Arabidopsis leaves, mass spectrometry (IPMS); interaction direct or indirect.
UniProt P10896, sequence (P10896 59-474 limits assumed): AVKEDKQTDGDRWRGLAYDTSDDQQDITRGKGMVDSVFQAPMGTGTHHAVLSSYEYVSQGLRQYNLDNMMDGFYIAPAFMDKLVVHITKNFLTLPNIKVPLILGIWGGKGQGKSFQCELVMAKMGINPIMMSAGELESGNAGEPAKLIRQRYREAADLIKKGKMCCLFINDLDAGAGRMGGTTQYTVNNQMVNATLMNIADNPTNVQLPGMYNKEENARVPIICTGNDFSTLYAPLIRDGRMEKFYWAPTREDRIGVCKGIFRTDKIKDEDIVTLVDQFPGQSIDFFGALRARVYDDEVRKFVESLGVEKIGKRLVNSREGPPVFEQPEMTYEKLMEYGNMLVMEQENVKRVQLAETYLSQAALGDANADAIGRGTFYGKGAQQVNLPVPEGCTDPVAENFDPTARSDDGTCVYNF

For the substance “PRL-1-eGFP (C-terminal GFP fusion with PRL-1, ribulose bisphosphate carboxylase/oxygenase large subunit-related, Potri.012G062600)”, the fold abundance in the dark versus light (co-precipitated protein) was found to be 4 fold.

The record behind these values is patent US20240401071A1.
